Experimental findings from publication PMC11898529, “The LSmAD Domain of Ataxin-2 Modulates the Structure and RNA Binding of Its Preceding LSm Domain” are described below.

In series [1] the target is T1, LSm domain of Ataxin-2 (UniProt Q99700 242-344). Briefly: SHAPE footprinting; GU-, AU-, CU-rich protected (CU most); CA-rich unchanged; EMSA: 10 mM Tris pH 8.0, 25 mM KCl, 10 mM NaCl, 1 mM MgCl2, 10% glycerol, 0.5 mM DTT, 20 min, 25 C; SEC and SHAPE buffers not in material. The following applies: protein: recombinant; tags: His tag (pET-22b(+), NdeI/XhoI). On the technique in general: A gel shift assay detects complexes by their altered migration in electrophoresis.

The target in series [2] is T2, LSm-LSmAD M2 mutant of Ataxin-2 (UniProt Q99700 242-475, S315Q;S317T). The series is described as above. The following applies: protein: recombinant.
The target in series [3] is LSmAD domain of Ataxin-2 (UniProt Q99700 353-475). Put plainly: EMSA; protein/RNA molar ratio up to 6; 1 mM MgCl2; EMSA: 10 mM Tris pH 8.0, 25 mM KCl, 10 mM NaCl, 1 mM MgCl2, 10% glycerol, 0.5 mM DTT, 20 min, 25 C; SEC and SHAPE buffers not in material. Conditions: protein: recombinant, tags: His tag, single strand with flanking hairpins.
For series [4], the target named is T1, LSm domain of Ataxin-2. Briefly: size-exclusion chromatography; EMSA: 10 mM Tris pH 8.0, 25 mM KCl, 10 mM NaCl, 1 mM MgCl2, 10% glycerol, 0.5 mM DTT, 20 min, 25 C; SEC and SHAPE buffers not in material. The following applies: protein: recombinant, tags: His tag (pET-22b(+), NdeI/XhoI), single strand with flanking hairpins. A general note: SEC sorts molecules by how far they enter the pores of the column.

Series [5] deals with T2, LSm-LSmAD M2 mutant of Ataxin-2. Briefly: EMSA; fully shifted at protein/RNA molar ratio 20; moderate affinity; 1 mM MgCl2; EMSA: 10 mM Tris pH 8.0, 25 mM KCl, 10 mM NaCl, 1 mM MgCl2, 10% glycerol, 0.5 mM DTT, 20 min, 25 C; SEC and SHAPE buffers not in material. The following applies: protein: recombinant; single strand with flanking hairpins.
Series [6] concerns the target T1, LSm domain of Ataxin-2. Put plainly: SHAPE footprinting; AU-, GU-, CU-rich protected, less than with M2; CA-rich unchanged; EMSA: 10 mM Tris pH 8.0, 25 mM KCl, 10 mM NaCl, 1 mM MgCl2, 10% glycerol, 0.5 mM DTT, 20 min, 25 C; SEC and SHAPE buffers not in material. Conditions: protein: recombinant; tags: His tag (pET-22b(+), NdeI/XhoI).
For series [7], the target named is T2, LSm-LSmAD M2 mutant of Ataxin-2. Put plainly: SHAPE footprinting; AU-, GU-, CU-rich protected, more than with LSm; CA-rich unchanged; EMSA: 10 mM Tris pH 8.0, 25 mM KCl, 10 mM NaCl, 1 mM MgCl2, 10% glycerol, 0.5 mM DTT, 20 min, 25 C; SEC and SHAPE buffers not in material. The following applies: protein: recombinant.
For series [8] the target is unchanged. Put plainly: SHAPE footprinting; AU- and GU-rich protected (GU more than with LSm); CA-rich unchanged; EMSA: 10 mM Tris pH 8.0, 25 mM KCl, 10 mM NaCl, 1 mM MgCl2, 10% glycerol, 0.5 mM DTT, 20 min, 25 C; SEC and SHAPE buffers not in material. Conditions: protein: recombinant.
For series [9], the target named is T1, LSm domain of Ataxin-2. Put plainly: SHAPE footprinting; AU- and GU-rich protected (AU more than with M2); CA-rich unchanged; EMSA: 10 mM Tris pH 8.0, 25 mM KCl, 10 mM NaCl, 1 mM MgCl2, 10% glycerol, 0.5 mM DTT, 20 min, 25 C; SEC and SHAPE buffers not in material. The following applies: protein: recombinant; tags: His tag (pET-22b(+), NdeI/XhoI).

T1 sequence (Q99700 242-344): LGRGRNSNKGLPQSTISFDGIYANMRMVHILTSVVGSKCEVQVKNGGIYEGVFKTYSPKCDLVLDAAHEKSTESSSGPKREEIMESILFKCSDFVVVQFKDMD
T2 sequence (Q99700 242-475 S315Q/S317T): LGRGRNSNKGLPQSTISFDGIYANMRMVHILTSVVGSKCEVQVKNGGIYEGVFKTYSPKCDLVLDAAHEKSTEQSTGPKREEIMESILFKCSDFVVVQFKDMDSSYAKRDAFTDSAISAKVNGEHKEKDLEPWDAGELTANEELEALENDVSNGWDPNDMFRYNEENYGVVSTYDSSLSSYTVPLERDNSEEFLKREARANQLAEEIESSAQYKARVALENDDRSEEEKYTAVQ
LSmAD domain of Ataxin-2, sequence (Q99700 353-475): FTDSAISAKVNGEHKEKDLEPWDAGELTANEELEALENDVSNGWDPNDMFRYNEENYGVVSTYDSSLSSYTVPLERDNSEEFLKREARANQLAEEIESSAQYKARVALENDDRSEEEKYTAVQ

B1: RE5 (structured_RNA)
RNA: GGCCUUCGGGCCAAACCGUACACACACACAUGGCUAGACGGUAUGUUUGUUUGUUGUUUGUUUGUUGUUUGUUUGUGUUUGACGUAGGAAUUUAAUUUAAUUUAAUUUAAUUUAAUUUAAUUUACAGGCUACGUAGGCCAGGACCCCUCUUUUCUCCCCAGGACCCCUCUUUUCUCCCCAUUCACCCUCCCUUCUCCAGAGCGAUUCGAUCCGGUUCGCCGGAUCCAAAUCGGGCUUCGGUCCGGUUC
In the case of B1, the binding result in [1] and in series [2] was “binds” in each case.

B2: AC-rich RNA (structured_RNA)
RNA: GGCCUUCGGGCCAAACCCCCACCCCCACCCCCACCCCCACCCCCUCGAUCCGGUUCGCCGGAUCCAAAUCGGGCUUCGGUCCGGUUC
Regarding B2, the binding result in series [3] (two conformers in gel) and in [4] (two conformers in gel) was “no binding” in each case.

B3: AU-rich RNA (structured_RNA)
RNA: GGCCUUCGGGCCAAAUUUUUAUUUUUAUUUUUAUUUUUAUUUUUUCGAUCCGGUUCGCCGGAUCCAAAUCGGGCUUCGGUCCGGUUC
As to B3, the binding result in series [5] is “binds”; in [3] it was “no binding”; in series [4], “binds”.

B4: RE2 (structured_RNA)
RNA: GGCCUUCGGGCCAAAUUUAUUUAUUUAUUUAGCGAGAAGUUGUUUGUUUGUGUUUGACGUCUGUGUGGACGUCACACACAGGAUGCAUCGGACCUUUUCCCCUUUUCCCUUUUCGAUCCGGUUCGCCGGAUCCAAAUCGGGCUUCGGUCCGGUUC
In the case of B4, the binding result in [6] and in [7] was “binds” throughout.

B5: RE1 (structured_RNA)
RNA: GGCCUUCGGGCCAAAUUUAUUUAUUUAUUUAUUUAGCUGACGAUCCACACACACAGGAAUCGACUCUGUUUGUUUGUGUUUGUUUGUACUGAAUUGGCACUUUUCCCCUUUUCCCUUUCUGGACUGGCAUCGAUCCGGUUCGCCGGAUCCAAAUCGGGCUUCGGUCCGGUUC
Turning to B5, the binding result in series [8] and in series [9] was “binds” throughout.
